This note sets out measurements from publication PMC3946040.

The target in experiment [1] is AspBHI, modification-dependent restriction endonuclease from Azoarcus sp. BH72 (Azoarcus sp. BH72). As to the kind of experiment: crystal structure.
The target is the same in experiment [2]. As to the kind of experiment: SEC. (In general: In gel filtration, larger molecules generally elute earlier.)

For the substance “AspBHI, modification-dependent restriction endonuclease from Azoarcus sp. BH72 (enzyme)”, the stoichiometry N in experiment [1] and in experiment [2] was 4 throughout.

Broadly, the stoichiometry N is a count of units in the complex or per binding partner.
